The values below come from patent US20050118729A1 (published 2005).

For this test, the target named is T1, α4β1 integrin expressed on Jurkat cells (human, UniProt P13612 34-1032; P05556 21-798).
T1 construct: whole, on cells; Cells labeled with a fluorescent dye (Cyto 82); also called receptor recognizing the CS1 peptide
The test is described as follows: cell adhesion of labeled Jurkat cells on microarray.

T1 sequence (P13612 34-1032, chain 1 of 2): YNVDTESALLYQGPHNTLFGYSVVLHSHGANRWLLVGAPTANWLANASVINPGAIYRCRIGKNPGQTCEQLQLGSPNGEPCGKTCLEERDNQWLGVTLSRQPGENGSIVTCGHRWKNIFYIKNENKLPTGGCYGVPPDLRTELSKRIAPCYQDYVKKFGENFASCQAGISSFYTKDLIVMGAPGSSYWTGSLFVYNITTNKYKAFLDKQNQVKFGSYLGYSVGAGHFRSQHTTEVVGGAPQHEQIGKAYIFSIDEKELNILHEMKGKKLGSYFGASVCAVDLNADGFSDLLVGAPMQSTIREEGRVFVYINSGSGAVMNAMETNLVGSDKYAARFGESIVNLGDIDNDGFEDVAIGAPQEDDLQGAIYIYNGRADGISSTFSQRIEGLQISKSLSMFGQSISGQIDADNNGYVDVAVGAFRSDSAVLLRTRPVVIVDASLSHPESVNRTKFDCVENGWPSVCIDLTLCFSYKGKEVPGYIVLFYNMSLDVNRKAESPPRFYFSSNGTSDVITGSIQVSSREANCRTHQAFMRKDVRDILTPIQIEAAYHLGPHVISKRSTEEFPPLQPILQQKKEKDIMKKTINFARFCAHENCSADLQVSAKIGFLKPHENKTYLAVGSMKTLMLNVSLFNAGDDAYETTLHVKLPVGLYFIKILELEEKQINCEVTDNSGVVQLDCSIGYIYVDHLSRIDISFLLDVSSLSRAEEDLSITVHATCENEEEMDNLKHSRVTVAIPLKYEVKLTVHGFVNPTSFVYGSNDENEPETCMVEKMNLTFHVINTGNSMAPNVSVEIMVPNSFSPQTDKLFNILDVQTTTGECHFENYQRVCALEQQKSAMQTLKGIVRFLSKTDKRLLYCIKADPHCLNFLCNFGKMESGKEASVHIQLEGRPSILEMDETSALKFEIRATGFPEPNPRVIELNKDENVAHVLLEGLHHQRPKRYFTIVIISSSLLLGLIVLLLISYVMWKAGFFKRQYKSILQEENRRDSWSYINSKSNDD
T1 sequence (P05556 21-798, chain 2 of 2): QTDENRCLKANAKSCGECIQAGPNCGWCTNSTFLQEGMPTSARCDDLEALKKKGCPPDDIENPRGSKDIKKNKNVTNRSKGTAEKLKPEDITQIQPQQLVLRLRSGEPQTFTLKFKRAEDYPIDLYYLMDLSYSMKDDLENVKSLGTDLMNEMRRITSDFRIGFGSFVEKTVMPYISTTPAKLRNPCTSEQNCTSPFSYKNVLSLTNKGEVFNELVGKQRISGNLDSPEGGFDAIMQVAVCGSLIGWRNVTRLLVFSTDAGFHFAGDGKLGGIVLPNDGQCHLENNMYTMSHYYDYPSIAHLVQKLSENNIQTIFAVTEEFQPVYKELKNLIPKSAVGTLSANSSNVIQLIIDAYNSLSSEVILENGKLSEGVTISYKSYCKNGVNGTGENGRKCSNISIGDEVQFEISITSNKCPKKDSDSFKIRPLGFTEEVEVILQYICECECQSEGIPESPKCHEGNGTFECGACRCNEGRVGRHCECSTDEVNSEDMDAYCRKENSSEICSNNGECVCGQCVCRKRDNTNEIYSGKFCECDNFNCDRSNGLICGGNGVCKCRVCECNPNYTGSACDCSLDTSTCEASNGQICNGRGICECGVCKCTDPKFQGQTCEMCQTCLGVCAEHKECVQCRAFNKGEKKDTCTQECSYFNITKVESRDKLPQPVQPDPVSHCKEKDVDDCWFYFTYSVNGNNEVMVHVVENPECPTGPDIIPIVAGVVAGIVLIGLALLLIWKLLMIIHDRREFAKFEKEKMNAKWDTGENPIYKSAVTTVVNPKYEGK
Method: Jurkat T-cells, a human leukemia line, were grown under the appropriate growing conditions. Shortly before the adherence assay, cells were washed with 5 mM EDTA in Tris-buffered saline (TBS, 10 mM Tris-HCl, pH 7.4, 150 mM NaCl) and then incubated with Cyto 82 (2 μM final concentration) for 30 min under continuous agitation. Labeled cells were washed twice with the same buffer and applied directly on the fabricated microarray slides.
The model of interaction chosen for this purpose was α4β1-CS1-interaction model. α4β1 is an integrin expressed by several types of adherent cells and can mediate cell matrix contact trough the known ligand fibronectin. […] The slides were washed extensively and the interaction was scanned by the microarray scanner (FIG. 10).

B1: recombinant protein comprising the cellulose binding region of SEQ ID NO 4 (cellulose binding recombinant protein of Example 1) (other)
chain: NATPTKGATPTNTATPTKSATATPTRPSVPTNTPTNTPANTPVSGNLKVEFYNSNPSDTTNSINPQFKVTNTGSSAIDLSKLTLRYYYTVDGQKDQTFWCDHAAIIGSNGSYNGITSNVKGTFVKMSSSTNNADTYLEISFTGGTLEPGAHVQIQGRFAKNDWSNYTQSNDYSFKSASQFVEWDQVTAYLNGVLVWGKEPGGSVVPSTQPVTTPPATTKPPATTKPPATTIPPSDDPNA
Take B1: the binding result is recorded as “no binding (tested: highest array concentration)”.
